Results as given in US20240018240A1 (Hoffmann-La Roche, published 2024).

T1: cynomolgus PLAP (ALPP) expressed on CHO-K1 cells (cynomolgus, UniProt P05187 23-452 (human entry))
T1 chain: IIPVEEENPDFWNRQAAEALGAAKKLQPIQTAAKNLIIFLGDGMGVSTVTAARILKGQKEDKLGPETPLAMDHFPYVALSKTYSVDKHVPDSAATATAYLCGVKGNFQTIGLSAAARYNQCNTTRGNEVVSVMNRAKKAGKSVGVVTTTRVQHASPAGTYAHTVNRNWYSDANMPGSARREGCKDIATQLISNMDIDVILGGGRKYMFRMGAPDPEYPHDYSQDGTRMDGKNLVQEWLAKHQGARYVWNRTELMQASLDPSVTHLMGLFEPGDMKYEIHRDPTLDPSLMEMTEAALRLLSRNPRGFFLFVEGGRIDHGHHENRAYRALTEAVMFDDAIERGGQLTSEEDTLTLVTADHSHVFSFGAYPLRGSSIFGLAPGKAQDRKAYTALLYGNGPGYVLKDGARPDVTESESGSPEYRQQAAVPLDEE


Tests used:
[1] = biological target: T2, human PLAP (ALPP) expressed on CHO-K1 cells (human, UniProt P05187 23-506); experiment: cell-based or functional assay
T2 sequence (P05187 23-506): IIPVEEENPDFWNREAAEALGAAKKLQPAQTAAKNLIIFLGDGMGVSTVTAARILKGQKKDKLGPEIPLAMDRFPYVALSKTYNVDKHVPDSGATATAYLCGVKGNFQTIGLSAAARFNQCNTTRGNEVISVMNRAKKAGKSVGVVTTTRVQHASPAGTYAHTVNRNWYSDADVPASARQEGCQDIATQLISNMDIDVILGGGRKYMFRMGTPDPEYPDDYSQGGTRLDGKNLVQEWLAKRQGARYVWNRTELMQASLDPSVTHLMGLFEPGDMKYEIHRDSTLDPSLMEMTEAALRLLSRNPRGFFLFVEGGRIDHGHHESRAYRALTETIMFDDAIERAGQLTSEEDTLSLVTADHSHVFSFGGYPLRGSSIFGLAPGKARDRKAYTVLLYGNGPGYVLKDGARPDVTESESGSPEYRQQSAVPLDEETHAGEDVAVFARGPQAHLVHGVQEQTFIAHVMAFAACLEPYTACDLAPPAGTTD

[2] = biological target: human ALPG (ALPPL2) expressed on CHO-K1 cells (human, UniProt P10696 20-503); experiment: cell-based or functional assay
[3] = biological target: T3, Human CD3ε stalk-Fc(knob)-Avi/CD3δ stalk-Fc(hole) (human); experiment: SPR (Biacore T200, 25°C); TCB captured by anti-PG antibody on CM5 chip, 300 nM human CD3ε/δ injected; relative active concentration
T3 construct: Heterodimer of CD3 delta and CD3 epsilon ectodomains fused to a human Fc domain with knob-into-hole modifications and C-terminal Avi-tag; also called human CD3ε/δ; CD3ε/δ
Protocol: SPR experiments were performed on a Biacore T200 instrument (GE Healthcare) at 25° C. with HBS-P+(10 mM HEPES, 150 mM NaCl pH 7.4, 0.05% Surfactant P20) as running and dilution buffer. Anti-PG antibody (see Example 3) was immobilized by amine coupling (using amine coupling kit, Cytiva #BR100050) at a density of >6000 RU on a CM5 Chip (Sensor Chip CM5, Cytiva #29104988). The 10 nM solutions of TCB molecule samples in HBS-P+ were captured for 30 sec at a flow rate 10 μl/min. Then a 300 nM solution of human CD3ε/δ (see Example 3, SEQ ID NOs 24 and 25) was injected for 150 sec association time and 120 sec dissociation time at a flow rate of 10 μl/min. The regeneration of the surface followed by a 35 sec regeneration step with a 20 mM NaOH solution. The data were analyzed with the Biacore T200 Evaluation and Excel software. For the calculation of relative active concentration (RAC) the binding report point (BRP) was used (the BRP is a standard readout point in SPR, maximum response (unit/value) of interaction between antigen and antibody).

[4] = biological target: T4, Human PLAP (soluble, as injected in SPR) (human, UniProt P05187 23-506); experiment: SPR RAC assay (Biacore T200, 25°C); TCB captured by anti-PG antibody on CM3 chip, 100 nM human PLAP injected
T4 construct: also called PLAP target
T4 sequence (P05187 23-506 limits assumed): as the sequence (P05187 23-506) above
Protocol: (§1) SPR experiments were performed on a Biacore T200 instrument (GE Healthcare). For the immobilization. HBS-N pH 7.4 was used as a running buffer (Cytiva #BR100670). Anti-PG antibody (see Example 3) was immobilized by amine coupling (using amine coupling kit, Cytiva #BR100050) at a density of >6000 RU on a CM3 Chip (Cytiva #29104990). The anti-PG antibody stock solution was diluted to a concentration of 25 μg/mL in a 10 mM sodium acetate buffer of pH 5.0 (Cytiva #BR100351). After the immobilization the analysis was performed at 25° C., and using PBS-P+ (Cytiva #28995084) as a running and a dilution buffer. The 5 nM solutions of TCB molecule samples in PBS-P+ were captured for 30 sec at a flow rate 5 μl/min. Then a 100 nM solution of human PLAP was injected for 90 sec association time and 30 sec dissociation time at a flow rate of 8 μl/min. Thereafter, a 200 nM solution of human CD3ε/δ (see Example 3, SEQ ID NOs 24 and 25) was injected for 90 sec association time and 30 sec dissociation time at a flow rate of 8 μl/min. The regeneration of the surface followed by two 60 sec regeneration steps with a 10 mM NaOH solution. The data were analyzed with the Biacore T200 Evaluation and Excel software. For the calculation of relative active concentration (RAC) the binding report point (BRP) was used. To calculate the RAC, the target and antibody concentrations were referenced to the unstressed sample (−80° C.) as 100% comparison. For the normalization of the protein concentration, reference was made to anti-PG antibody capturing (RAC values).

[5] = biological target: T4, Human PLAP (soluble, as injected in SPR); experiment: SPR single cycle kinetics (Biacore T200, 25°C); TCB captured by anti-PG antibody on CM3 chip, human PLAP as analyte
Protocol: (§2) The binding kinetics of the PLAP TCB molecules generated in Example 17 were characterized by the single cycle kinetic (SSK) assay. For this assay, again the SPR Biacore T200 was used. The immobilization was performed at 25° C. with HBS-N pH 7.4 as a running buffer (Cytiva #BR100670). The anti-PG antibody (see Example 3) was immobilized by amine coupling (using amine coupling kit, Cytiva #BR100050) at a density of >5000 RU on a CM3 Chip (Cytiva #29104990). The anti-PG antibody stock solution was diluted to a concentration of 25 μg/mL in a 10 mM sodium acetate buffer of pH 5.0 (Cytiva #BR100351). After the immobilization the analysis was performed at 25° C., and PBS-P+(Cytiva #28995084) was used as a running and a dilution buffer. The 3 nM solutions of TCB molecule samples in PBS-P+ were captured with anti-PG antibody on a CM3 sensor chip.
(§3) The derived kinetic rate constants and corresponding affinity values (equilibrium dissociation constant KD) are summarized in Table 26 for the CD3 binder and in Table 27 for the PLAP binder. The data were analyzed with the Biacore T200 Evaluation and Excel software.

[6] = biological target: T3, Human CD3ε stalk-Fc(knob)-Avi/CD3δ …; experiment: SPR single cycle kinetics (Biacore T200, 25°C); TCB captured by anti-PG antibody on CM3 chip, human CD3ε/δ as analyte
Protocol: as §2, §3

[7] = biological target: T3, Human CD3ε stalk-Fc(knob)-Avi/CD3δ …; experiment: SPR RAC assay (Biacore T200, 25°C); TCB captured by anti-PG antibody on CM3 chip, 200 nM human CD3ε/δ injected after 100 nM human PLAP
Protocol: as §1

[8] = biological target: T2, human PLAP (ALPP) expressed on CHO-K1 …; experiment: cell-based or functional assay; remark: listed apart in the source
[9] = biological target: T1, cynomolgus PLAP (ALPP) expressed on …; experiment: cell-based or functional assay

| EC50 (pM), Jurkat NFAT reporter assay (luminescence, 6 h) [1] | EC50 (pM), Jurkat NFAT reporter assay (luminescence, 6 h) [2] | RAC % of CD3 binding, stress A [3] | RAC % of CD3 binding, stress B [3] | RAC % of CD3 binding, unstressed [3] | RAC [%] PLAP binding, stress A [4] | RAC [%] PLAP binding, stress B [4] | RAC [%] PLAP binding, unstressed [4] | Kd [5] | koff [5] | kon [5] | Kd [6] | koff [6] | kon [6] | RAC [%] CD3 binding, stress A [7] | RAC [%] CD3 binding, stress B [7] | RAC [%] CD3 binding, unstressed [7] | EC50 (pM), Jurkat NFAT reporter assay to show cynomolgus cross-reactivity [8] | EC50 (pM), Jurkat NFAT reporter assay to show cynomolgus cross-reactivity [9] | Binder |
| --- | --- | --- | --- | --- | --- | --- | --- | --- | --- | --- | --- | --- | --- | --- | --- | --- | --- | --- | --- |
| 35 pM | 35 pM | 99% | 97% | 100% | 100% | 100% | 100% | 0.0051 nM | 2.22e-05 s⁻¹ | 4.33e+06 M⁻¹ s⁻¹ | 0.5 nM | 0.000933 s⁻¹ | 2.09e+06 M⁻¹ s⁻¹ | 99% | 98% | 100% | 98 pM | 48 pM | PLAP H3 CD3 P035.093 TCB (bispecific antibody, human IgG1, kappa, L234A L235A, 2+1 IgG CrossFab, inverted; also called PLAP H3 TCB; PLAP (H3) TCB) heavy 1: not shown heavy 2: QVQLQESGPGLVKPSETLSLTCTVSGFSLTSYGVSWIRQPPGKGLEWIGVIWEDGSTNYNPSLKSRVTISVDTSKNQFSLKLSSVTAADTAVYYCARPHYGSSYVGAMEYWGAGTTVTVSSASTKGPSVFPLAPSSKSTSGGTAALGCLVEDYFPEPVTVSWNSGALTSGVHTFPAVLQSSGLYSLSSVVTVPSSSLGTQTYICNVNHKPSNTKVDEKVEPKSCDKTHTCPPCPAPEAAGGPSVFLFPPKPKDTLMISRTPEVTCVVVDVSHEDPEVKFNWYVDGVEVHNAKTKPREEQYNSTYRVVSVLTVLHQDWLNGKEYKCKVSNKALGAPIEKTISKAKGQPREPQVCTLPPSRDELTKNQVSLSCAVKGFYPSDIAVEWESNGQPENNYKTTPPVLDSDGSFFLVSKLTVDKSRWQQGNVFSCSVMHEALHNHYTQKSLSLSP light 1: DIQMTQSPSSLSASVGDRVTITCRASENIYSYVAWYQQKPGKAPKLLIYNAKSLASGVPSRFSGSGSGTDFTLTISSLQPEDFATYYCQHHYVSPWTFGGGTKLEIKRTVAAPSVFIFPPSDRKLKSGTASVVCLLNNFYPREAKVQWKVDNALQSGNSQESVTEQDSKDSTYSLSSTLTLSKADYEKHKVYACEVTHQGLSSPVTKSFNRGEC light 2: EVQLLESGGGLVQPGGSLRLSCAASGFTFSSYAMNWVRQAPGKGLEWVSRIRSKYNNYATYYADSVKGRFTISRDDSKNTLYLQMNSLRAEDTAVYYCVRASNFPASYVSYFAYWGQGTLVTVSSASVAAPSVFIFPPSDEQLKSGTASVVCLLNNFYPREAKVQWKVDNALQSGNSQESVTEQDSKDSTYSLSSTLTLSKADYEKHKVYACEVTHQGLSSPVTKSFNRGEC |
| 36 pM | 34 pM | 97% | 99% | 100% |  |  |  |  |  |  |  |  |  |  |  |  | 37 pM | 52 pM | PLAP H5 CD3 P035.093 TCB (bispecific antibody, human IgG1, kappa, L234A L235A, also called PLAP H5 TCB; PLAP (H5) TCB) heavy 1: not shown heavy 2: QVQLQESGPGLVKPSETLSLTCTVSGGSVTSYGVSWIRQPPGKGLEWIGVIWEDGSTNYHSALISRVTISVDTSKNQFSLKLSSVTAADTAVYYCARPHYGSSYVGAMEYWGAGTTVTVSSASTKGPSVFPLAPSSKSTSGGTAALGCLVEDYFPEPVTVSWNSGALTSGVHTFPAVLQSSGLYSLSSVVTVPSSSLGTQTYICNVNHKPSNTKVDEKVEPKSCDKTHTCPPCPAPEAAGGPSVFLFPPKPKDTLMISRTPEVTCVVVDVSHEDPEVKFNWYVDGVEVHNAKTKPREEQYNSTYRVVSVLTVLHQDWLNGKEYKCKVSNKALGAPIEKTISKAKGQPREPQVCTLPPSRDELTKNQVSLSCAVKGFYPSDIAVEWESNGQPENNYKTTPPVLDSDGSFFLVSKLTVDKSRWQQGNVFSCSVMHEALHNHYTQKSLSLSP light 1: DIQMTQSPSSLSASVGDRVTITCRASENIYSYVAWYQQKPGKAPKLLIYNAKSLASGVPSRFSGSGSGTDFTLTISSLQPEDFATYYCQHHYVSPWTFGGGTKLEIKRTVAAPSVFIFPPSDRKLKSGTASVVCLLNNFYPREAKVQWKVDNALQSGNSQESVTEQDSKDSTYSLSSTLTLSKADYEKHKVYACEVTHQGLSSPVTKSFNRGEC light 2: EVQLLESGGGLVQPGGSLRLSCAASGFTFSSYAMNWVRQAPGKGLEWVSRIRSKYNNYATYYADSVKGRFTISRDDSKNTLYLQMNSLRAEDTAVYYCVRASNFPASYVSYFAYWGQGTLVTVSSASVAAPSVFIFPPSDEQLKSGTASVVCLLNNFYPREAKVQWKVDNALQSGNSQESVTEQDSKDSTYSLSSTLTLSKADYEKHKVYACEVTHQGLSSPVTKSFNRGEC |
